Test [1] concerns the target T1, plasma kallikrein (pKal) (UniProt P03952 20-390; P03952 391-638, limits assumed).
T1 construct: the description speaks of human pKal; also called active pKal
Kind of test: enzyme inhibition, corrected Ki,app.

The target in test [2] is T2, Factor XIIa (FXIIa) (UniProt P00748 20-372; P00748 373-615, limits assumed).
T2 construct: the description speaks of human FXIIa; also called active Factor XII
T2 sequence (looked up) 1: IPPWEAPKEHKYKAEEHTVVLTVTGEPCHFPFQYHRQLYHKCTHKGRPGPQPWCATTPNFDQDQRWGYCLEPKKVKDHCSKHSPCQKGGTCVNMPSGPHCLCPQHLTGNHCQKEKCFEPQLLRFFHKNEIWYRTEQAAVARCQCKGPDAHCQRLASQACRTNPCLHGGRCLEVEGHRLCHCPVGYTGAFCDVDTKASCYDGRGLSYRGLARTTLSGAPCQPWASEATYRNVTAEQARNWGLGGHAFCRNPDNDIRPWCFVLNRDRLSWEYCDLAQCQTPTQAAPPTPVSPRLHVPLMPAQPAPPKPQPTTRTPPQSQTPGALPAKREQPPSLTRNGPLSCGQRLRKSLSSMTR
T2 sequence (looked up) 2: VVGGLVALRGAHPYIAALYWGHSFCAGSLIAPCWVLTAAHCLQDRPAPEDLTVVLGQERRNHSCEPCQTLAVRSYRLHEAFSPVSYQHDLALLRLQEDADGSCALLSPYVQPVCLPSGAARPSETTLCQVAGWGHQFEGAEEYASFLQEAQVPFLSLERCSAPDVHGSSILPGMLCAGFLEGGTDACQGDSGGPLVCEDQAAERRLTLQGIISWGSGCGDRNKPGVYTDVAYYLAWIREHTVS
The experiment in a line: enzyme inhibition, corrected Ki,app.

T1 sequence (P03952 20-390 limits assumed, form in doubt, chain 1 of 2): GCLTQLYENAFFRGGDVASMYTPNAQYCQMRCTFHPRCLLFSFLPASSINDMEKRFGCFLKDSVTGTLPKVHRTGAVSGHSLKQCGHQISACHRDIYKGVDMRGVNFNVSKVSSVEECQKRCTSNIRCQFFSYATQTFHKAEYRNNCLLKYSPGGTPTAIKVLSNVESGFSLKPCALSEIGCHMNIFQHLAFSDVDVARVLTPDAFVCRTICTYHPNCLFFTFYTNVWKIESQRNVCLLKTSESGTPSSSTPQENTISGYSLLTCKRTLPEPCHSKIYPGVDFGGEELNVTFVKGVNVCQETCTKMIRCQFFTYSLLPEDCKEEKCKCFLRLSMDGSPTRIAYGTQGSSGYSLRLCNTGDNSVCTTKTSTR
T1 sequence (P03952 391-638 limits assumed, form in doubt, chain 2 of 2): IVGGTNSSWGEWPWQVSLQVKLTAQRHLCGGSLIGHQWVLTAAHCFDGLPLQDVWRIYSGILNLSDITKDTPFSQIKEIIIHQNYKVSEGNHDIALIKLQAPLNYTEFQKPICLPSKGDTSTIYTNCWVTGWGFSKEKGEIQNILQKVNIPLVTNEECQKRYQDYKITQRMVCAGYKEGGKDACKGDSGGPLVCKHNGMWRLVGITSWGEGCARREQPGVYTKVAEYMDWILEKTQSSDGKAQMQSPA

B1: 620I-X0136-C05 (bispecific antibody)
heavy: not shown
light: DIQMTQSPSTLSASVGDRVTITCRASQSISSWLAWYQQKPGKAPKLLIYKASTLESGVPSRFSGSGSGTEFTLTISSLQPDDFATYYCQQYNTYWTFGQGTKVEIKRTVAAPSVFIFPPSDEQLKSGTASVVCLLNNFYPREAKVQWKVDNALQSGNSQESVTEQDSKDSTYSLSSTLTLSKADYEKHKVYACEVTHQGLSSPVTKSFNRGEC
notes: also called 620I-X136-C05
For B1, the Ki in test [1] was 0.15 nM; in test [2] it was 0.058 nM.

B2: 620I-X0138-A06 (bispecific antibody)
heavy: not shown
light: B1 light
notes: also called 620I-X138-A06
With B2, the Ki in test [1] came to 0.145 nM.

B3: 620I-X0139-G02 (bispecific antibody)
heavy: not shown
light: B1 light
notes: also called 620I-X139-G02
Take B3: the Ki in test [1] came out at 0.171 nM; in test [2], 0.161 nM.

B4: 620I-X0136-A09 (bispecific antibody, human IgG1, kappa)
heavy: not shown
light: B1 light
notes: also called 620I-X136-A09
In the case of B4, the Ki in test [1] worked out at 0.19 nM.

B5: 620I-X0136-F11 (bispecific antibody)
heavy: not shown
light: B1 light
notes: also called 620I-X136-F11
Take B5: the Ki stood at 0.201 nM in test [1] and 0.235 nM in test [2].

B6: 620I-X0136-C11 (bispecific antibody)
heavy: not shown
light: B1 light
notes: also called 620I-X136-C11
With B6, the values for the Ki in test [1] and in test [2] were 0.154 nM and 0.038 nM, respectively.

B7: 620I-X0142-A11 (bispecific antibody)
heavy: not shown
light: B1 light
notes: also called 620I-X142-A11
For B7, the Ki in test [1] is 0.158 nM; in test [2], 0.195 nM.

B8: 620I-X0136-C01 (bispecific antibody)
heavy: not shown
light: B1 light
notes: also called 620I-X136-C01
On to B8, for which the Ki in test [1] was determined as 0.173 nM; in test [2], 0.957 nM.

B9: 620I-X0137-B08 (bispecific antibody)
heavy: not shown
light: B1 light
notes: also called 620I-X137-B08
Turning to B9, the Ki in test [1] was determined as 0.312 nM; in test [2] it was 0.409 nM.

B10: 620I-X0136-G04 (bispecific antibody)
heavy: not shown
light: B1 light
notes: also called 620I-X136-G04
B10: the Ki in test [1] is 0.179 nM; in test [2], 0.107 nM.

B11: 620I-X0138-B06 (bispecific antibody)
heavy: not shown
light: B1 light
notes: also called 620I-X138-B06
Regarding B11, the Ki in test [1] came to 0.33 nM; in test [2], 0.405 nM.

B12: 620I-X0136-A02 (bispecific antibody)
heavy: not shown
light: B1 light
notes: also called 620I-X136-A02
For the molecule B12, the results for the Ki in test [1] and in test [2] were 0.176 nM and 0.136 nM, respectively.

B13: 620I-X0138-A08 (bispecific antibody)
heavy: not shown
light: B1 light
notes: also called 620I-X138-A08
As for B13, the Ki in test [1] worked out at 0.92 nM; in test [2], 0.357 nM.

B14: 620I-X0136-A11 (bispecific antibody)
heavy: not shown
light: B1 light
notes: also called 620I-X136-A11
For B14, the values for the Ki in test [1] and in test [2] were 0.199 nM and 0.193 nM, respectively.

B15: 620I-X0136-E07 (bispecific antibody)
heavy: not shown
light: B1 light
notes: also called 620I-X136-E07
With B15, the Ki in test [1] turned out to be 0.19 nM; in test [2], 0.312 nM.

B16: 620I-X0136-G08 (bispecific antibody)
heavy: not shown
light: B1 light
notes: also called 620I-X136-G08
Consider B16, for which the Ki in test [1] worked out at 0.176 nM; in test [2], 0.028 nM.

B17: 620I-X0137-C08 (bispecific antibody)
heavy: not shown
light: B1 light
notes: also called 620I-X137-C08
With B17, the Ki in test [1] was 0.153 nM; in test [2] it was 0.034 nM.

B18: 620I-X0142-E09 (bispecific antibody)
heavy: not shown
light: B1 light
notes: also called 620I-X142-E09
Turning to B18, the Ki in test [1] came to 0.174 nM; in test [2] it was 0.163 nM.

B19: 620I-X0136-A01 (bispecific antibody)
heavy: not shown
light: B1 light
notes: also called 620I-X136-A01
For B19, the Ki came out at 0.135 nM in test [1] and 0.224 nM in test [2].

B20: 620I-X0136-C04 (bispecific antibody)
heavy: not shown
light: B1 light
notes: also called 620I-X136-C04
B20: the Ki turned out to be 0.205 nM in test [1] and 0.189 nM in test [2].

B21: 620I-X0136-D05 (bispecific antibody)
heavy: not shown
light: B1 light
notes: also called 620I-X136-D05
As to B21, the results for the Ki in test [1] and in test [2] were 0.055 nM and 0.013 nM, respectively.

B22: 620I-X0136-B02 (bispecific antibody)
heavy: not shown
light: B1 light
notes: also called 620I-X136-B02
Consider B22, for which the Ki in test [1] stood at 0.21 nM; in test [2] it was 2.86 nM.

B23: 620I-X0138-A01 (bispecific antibody)
heavy: not shown
light: B1 light
notes: also called 620I-X138-A01
As for B23, the Ki in test [1] stood at 0.154 nM; in test [2] it was 0.465 nM.

B24: 620I-X0138-A12 (bispecific antibody)
heavy: not shown
light: B1 light
notes: also called 620I-X138-A12
With B24, the results for the Ki in test [1] and in test [2] were 0.405 nM and 1.93 nM, respectively.

B25: 620I-X0137-A10 (bispecific antibody)
heavy: not shown
light: B1 light
notes: also called 620I-X137-A10
In the case of B25, the Ki was found to be 0.195 nM in test [1] and 0.205 nM in test [2].

B26: 620I-X0136-C09 (bispecific antibody)
heavy: not shown
light: B1 light
notes: also called 620I-X136-C09
B26: the Ki in test [1] turned out to be 0.173 nM; in test [2] it was 0.09 nM.

B27: 620I-X0136-C08 (bispecific antibody)
heavy: not shown
light: B1 light
notes: also called 620I-X136-C08
Take B27: the Ki in test [1] amounted to 0.216 nM; in test [2] it was 1.23 nM.

B28: 620I-X0136-A05 (bispecific antibody)
heavy: not shown
light: B1 light
notes: also called 620I-X136-A05
With B28, the Ki in test [1] worked out at 0.179 nM; in test [2], 0.111 nM.

B29: 620I-X0142-A10 (bispecific antibody)
heavy: not shown
light: B1 light
notes: also called 620I-X142-A10
Turning to B29, the Ki in test [1] is 0.175 nM; in test [2], 0.389 nM.

B30: 620I-X0136-D06 (bispecific antibody)
heavy: not shown
light: B1 light
notes: also called 620I-X136-D06
In the case of B30, the Ki in test [1] worked out at 0.176 nM; in test [2], 0.084 nM.

B31: 620I-X0136-G05 (bispecific antibody)
heavy: not shown
light: B1 light
notes: also called 620I-X136-G05
Take B31: the Ki in test [1] turned out to be 0.179 nM; in test [2], 0.1 nM.

B32: 620I-X0136-B07 (bispecific antibody)
heavy: not shown
light: B1 light
notes: also called 620I-X136-B07
Take B32: the Ki in test [1] worked out at 0.168 nM; in test [2] it was 0.099 nM.

B33: 620I-X0136-G10 (bispecific antibody)
heavy: not shown
light: B1 light
notes: also called 620I-X136-G10
For the molecule B33, the Ki in test [1] was determined as 0.171 nM; in test [2] it was 0.028 nM.

B34: 620I-X0136-C12 (bispecific antibody)
heavy: not shown
light: B1 light
notes: also called 620I-X136-C12
On to B34, for which the values for the Ki in test [1] and in test [2] were 0.217 nM and 1.57 nM, respectively.

B35: 620I-X0136-C07 (bispecific antibody)
heavy: not shown
light: B1 light
notes: also called 620I-X136-C07
With B35, the figures for the Ki in test [1] and in test [2] were 0.182 nM and 0.699 nM, respectively.

B36: 620I-X0136-A12 (bispecific antibody)
heavy: not shown
light: B1 light
notes: also called 620I-X136-A12
Turning to B36, the Ki in test [1] was 0.234 nM; in test [2] it was 0.304 nM.

B37: 620I-X0136-D12 (bispecific antibody)
heavy: not shown
light: B1 light
notes: also called 620I-X136-D12
As for B37, the Ki was 0.179 nM in test [1] and 0.063 nM in test [2].

B38: 620I-X0136-B11 (bispecific antibody)
heavy: not shown
light: B1 light
notes: also called 620I-X136-B11
In the case of B38, the figures for the Ki in test [1] and in test [2] were 0.172 nM and 0.184 nM, respectively.

B39: 620I-X0136-A04 (bispecific antibody)
heavy: not shown
light: B1 light
notes: also called 620I-X136-A04
For the molecule B39, the Ki in test [1] turned out to be 0.171 nM; in test [2], 0.23 nM.

B40: 620I-X0136-F07 (bispecific antibody)
heavy: not shown
light: B1 light
notes: also called 620I-X136-F07
For the molecule B40, the Ki in test [1] is 0.183 nM; in test [2], 0.167 nM.

B41: 620I-X0138-A02 (bispecific antibody)
heavy: not shown
light: B1 light
notes: also called 620I-X138-A02
Turning to B41, the Ki in test [1] is 0.206 nM; in test [2], 0.288 nM.

B42: 620I-X0136-E05 (bispecific antibody)
heavy: not shown
light: B1 light
notes: also called 620I-X136-E05
For B42, the Ki in test [1] is 0.158 nM; in test [2], 0.172 nM.

Source of the values: US20250263504A1 (Takeda / Millennium, published 2025).
